Data as given in the Human Domainome abundance scans (Beltran et al. 2025).
± gives the uncertainty stated by the source.

B1: Protein S100-G, residues 1 to 79; numbered along this chain, P02633 (parent)
chain: MSAKKSPEELKGIFEKYAAKEGDPNQLSKEELKLLLQTEFPSLLKGPSTLDELFEELDKNGDGEVSFEEFQVLVKKISQ

Variants of: B1
Test: abundance fitness (aPCA) (normalised: wild type 0, dead -1); higher = more abundant; growth selection in yeast, the domain comes from the species named
Details: Bos taurus

Abundance fitness of substitutions, site by site:
S28: F -0.425 ± 0.089 | I -0.282 ± 0.089 | Y -0.277 ± 0.089 | W -0.465 ± 0.091 | D 0.037 ± 0.093 | H -0.041 ± 0.081 | C -0.07 ± 0.088 | K -0.048 ± 0.091 | R -0.065 ± 0.066 | Q -0.008 ± 0.085 | M -0.218 ± 0.088 | A 0 ± 0.071 | E -0.05 ± 0.1 | T -0.083 ± 0.072 | L -0.208 ± 0.068 | N -0.049 ± 0.084 | V -0.156 ± 0.073 | P -0.033 ± 0.078
L27: G -0.786 ± 0.076 | W -0.936 ± 0.088 | E -1.04 ± 0.094 | D -0.855 ± 0.1 | I 0.105 ± 0.1 | P -0.846 ± 0.082 | A -0.137 ± 0.077 | Q -0.839 ± 0.08 | K -0.844 ± 0.088 | M -0.054 ± 0.085 | H -0.751 ± 0.092 | V -0.02 ± 0.073 | F -0.48 ± 0.093 | N -0.681 ± 0.099 | C 0.006 ± 0.091 | R -0.673 ± 0.066 | T -0.335 ± 0.078 | Y -0.764 ± 0.092 | S -0.611 ± 0.068
E30: G -0.057 ± 0.082 | S 0.048 ± 0.062 | I -0.032 ± 0.085 | Y -0.042 ± 0.083 | N 0.061 ± 0.085 | R 0.03 ± 0.066 | M 0.022 ± 0.08 | K -0.023 ± 0.084 | T -0.001 ± 0.068 | L -0.053 ± 0.062 | H -0.026 ± 0.077 | F -0.006 ± 0.077 | P 0.026 ± 0.074 | Q 0.04 ± 0.078 | A -0.016 ± 0.074 | V 0.071 ± 0.07 | W -0.074 ± 0.086 | C -0.018 ± 0.086 | D 0.073 ± 0.084
E31: F -0.123 ± 0.091 | D 0.054 ± 0.11 | I 0.032 ± 0.089 | N 0.023 ± 0.092 | R -0.064 ± 0.078 | V -0.033 ± 0.079 | W -0.171 ± 0.11 | Y -0.07 ± 0.091 | L -0.045 ± 0.074 | G 0.015 ± 0.084 | H -0.016 ± 0.086 | C -0.153 ± 0.097 | A -0.108 ± 0.09 | M -0.007 ± 0.1 | P -0.022 ± 0.095 | K -0.006 ± 0.1 | T -0.175 ± 0.086 | S 0.002 ± 0.074
P41: N -0.06 ± 0.081 | H 0.066 ± 0.088 | S 0.055 ± 0.068 | V -0.129 ± 0.069 | F -0.019 ± 0.098 | K 0.017 ± 0.087 | R -0.059 ± 0.066 | G 0.002 ± 0.072 | M -0.091 ± 0.085 | L -0.072 ± 0.065 | T 0.001 ± 0.073 | Q 0.025 ± 0.086 | W -0.115 ± 0.085 | D -0.021 ± 0.092 | E -0.191 ± 0.091 | Y -0.037 ± 0.09 | A 0.079 ± 0.074 | C -0.159 ± 0.094
L43: H -0.034 ± 0.081 | W -0.035 ± 0.078 | N -0.094 ± 0.082 | I -0.012 ± 0.085 | E 0.105 ± 0.09 | Y 0.015 ± 0.078 | A 0.013 ± 0.068 | K -0.001 ± 0.078 | R -0.077 ± 0.066 | M 0.011 ± 0.079 | Q 0.028 ± 0.078 | V 0.057 ± 0.068 | F -0.02 ± 0.081 | P -0.032 ± 0.073 | T -0.07 ± 0.069 | C -0.018 ± 0.092 | S 0.023 ± 0.064 | D -0.119 ± 0.09
K29: F 0.017 ± 0.087 | Q -0.099 ± 0.085 | A 0.025 ± 0.071 | E -0.14 ± 0.083 | L -0.008 ± 0.064 | I 0.056 ± 0.091 | R 0.027 ± 0.065 | M -0.057 ± 0.077 | H 0.06 ± 0.086 | C 0.002 ± 0.086 | V 0.038 ± 0.07 | N 0.07 ± 0.091 | D -0.007 ± 0.096 | Y 0.12 ± 0.086 | G -0.078 ± 0.073 | S -0.006 ± 0.068 | T 0.007 ± 0.079
K33: I -0.051 ± 0.086 | W -0.479 ± 0.083 | V -0.016 ± 0.072 | R -0.005 ± 0.07 | T 0.059 ± 0.074 | F -0.022 ± 0.091 | Y -0.121 ± 0.085 | N -0.016 ± 0.085 | E -0.032 ± 0.093 | A 0.043 ± 0.076 | G 0.033 ± 0.08 | H -0.041 ± 0.088 | C -0.072 ± 0.084
T38: F -0.002 ± 0.08 | A 0.027 ± 0.078 | P -0.642 ± 0.077 | W -0.194 ± 0.089 | L -0.073 ± 0.061 | G -0.1 ± 0.084 | V 0.014 ± 0.075 | I -0.004 ± 0.081 | D 0.096 ± 0.098 | H -0.045 ± 0.091 | M -0.045 ± 0.075 | N -0.056 ± 0.085 | R -0.082 ± 0.071 | Y -0.074 ± 0.084 | C -0.034 ± 0.095 | Q 0.008 ± 0.082
Q26: S 0.042 ± 0.064 | M 0.002 ± 0.083 | G -0.031 ± 0.07 | C -0.082 ± 0.089 | Y 0.021 ± 0.082 | E 0.012 ± 0.09 | D -0.155 ± 0.092 | P -0.523 ± 0.078 | I 0.003 ± 0.087 | K -0.05 ± 0.079 | V -0.081 ± 0.071 | R 0.054 ± 0.068 | W 0.037 ± 0.089 | F -0.043 ± 0.088 | L 0.006 ± 0.064 | H -0.075 ± 0.089 | N -0.048 ± 0.083 | A -0.062 ± 0.07
F40: V -0.065 ± 0.072 | M 0.047 ± 0.081 | L -0.037 ± 0.062 | P -0.889 ± 0.079 | N -0.084 ± 0.077 | Q -0.178 ± 0.081 | E -0.158 ± 0.094 | T -0.106 ± 0.072 | C -0.059 ± 0.082 | Y -0.011 ± 0.074 | I 0.019 ± 0.076 | D -0.099 ± 0.091 | A -0.189 ± 0.079 | S -0.16 ± 0.064 | K -0.218 ± 0.084 | W 0.008 ± 0.095 | G -0.155 ± 0.085
L44: F -0.006 ± 0.07 | A 0.071 ± 0.071 | D 0.033 ± 0.091 | C 0.002 ± 0.081 | E 0.058 ± 0.1
L32: A 0.027 ± 0.073 | P -2.71 ± 0.14 | K -1.03 ± 0.098 | E -1.72 ± 0.11 | H -0.951 ± 0.096 | S -0.138 ± 0.064 | C -0.097 ± 0.087 | V -0.067 ± 0.067 | T -0.054 ± 0.075 | I 0.067 ± 0.093 | N -0.673 ± 0.093 | F -0.048 ± 0.083 | D -3.08 ± 0.22 | W -0.209 ± 0.081 | Y -0.205 ± 0.087 | R -0.874 ± 0.067 | Q -0.616 ± 0.083
L34: V -0.031 ± 0.072 | R 0.05 ± 0.07 | E 0.054 ± 0.097 | T 0.023 ± 0.074 | G 0.035 ± 0.08 | S -0.04 ± 0.064 | Y -0.015 ± 0.079 | D 0.113 ± 0.093 | A 0.066 ± 0.075 | F -0.036 ± 0.075 | I 0.018 ± 0.09 | K 0.027 ± 0.085 | N 0.041 ± 0.085 | C -0.045 ± 0.08 | H 0.05 ± 0.078
L35: N -1.04 ± 0.081 | H -0.724 ± 0.074 | G -0.51 ± 0.085 | E -1.11 ± 0.11 | Q -0.684 ± 0.091 | T -0.174 ± 0.066 | A 0.02 ± 0.08 | P -2.06 ± 0.096 | S -0.206 ± 0.06 | D -1.44 ± 0.11 | F -0.164 ± 0.069 | C -0.064 ± 0.08 | I 0.016 ± 0.075 | M 0.031 ± 0.076 | W -0.313 ± 0.084 | K -0.829 ± 0.092
E39: L -0.207 ± 0.065 | G -0.809 ± 0.083 | K -0.33 ± 0.091 | C -0.295 ± 0.093 | S -0.308 ± 0.065 | M -0.177 ± 0.087 | D -0.16 ± 0.082 | I -0.24 ± 0.078 | Q -0.21 ± 0.089 | P -1.63 ± 0.097 | T -0.218 ± 0.069 | V -0.304 ± 0.068 | A -0.515 ± 0.07 | N -0.138 ± 0.077 | F -0.345 ± 0.08 | W -0.349 ± 0.1 | Y -0.197 ± 0.075 | R -0.449 ± 0.076 | H -0.059 ± 0.074
P24: Y -0.075 ± 0.087
S42: D -0.046 ± 0.086 | T 0.084 ± 0.073 | I -0.035 ± 0.083 | F -0.049 ± 0.081 | V -0.058 ± 0.071 | K 0.061 ± 0.081 | G -0.023 ± 0.075 | A -0.011 ± 0.072 | M -0.07 ± 0.081 | H -0.087 ± 0.085 | E 0.116 ± 0.089 | W -0.098 ± 0.085 | P 0.008 ± 0.075 | N -0.009 ± 0.083 | C -0.074 ± 0.086 | Y -0.047 ± 0.08 | R -0.056 ± 0.069
L36: S -0.499 ± 0.063 | W -0.076 ± 0.087 | Q -0.789 ± 0.09 | F -0.008 ± 0.074 | G -0.589 ± 0.085 | V -0.01 ± 0.067 | K -1.98 ± 0.11 | D -2.17 ± 0.14 | H -1.08 ± 0.083 | I -0.013 ± 0.076 | A -0.1 ± 0.07 | Y -0.209 ± 0.075 | C -0.099 ± 0.093 | R -1.92 ± 0.092 | E -1.37 ± 0.11 | T -0.203 ± 0.065
Q37: A -0.058 ± 0.074 | M -0.104 ± 0.078 | P -0.185 ± 0.072 | R 0.005 ± 0.067 | D 0.054 ± 0.088 | K -0.008 ± 0.08 | W -0.082 ± 0.085 | L -0.08 ± 0.06 | Y -0.118 ± 0.075 | H -0.047 ± 0.078 | C -0.076 ± 0.083 | I -0.104 ± 0.072 | T 0.021 ± 0.067 | V -0.001 ± 0.072 | E 0.019 ± 0.092 | F -0.016 ± 0.074 | S -0.142 ± 0.063 | G 0.004 ± 0.08
N25: I 0.024 ± 0.086 | W -0.303 ± 0.098 | Q -0.079 ± 0.09 | E -0.012 ± 0.092 | T -0.006 ± 0.076 | M -0.083 ± 0.081 | H 0.02 ± 0.086 | L 0.081 ± 0.065 | C -0.014 ± 0.097 | R -0.069 ± 0.069 | K -0.059 ± 0.086 | P -0.077 ± 0.08 | F 0.027 ± 0.085 | D -0.052 ± 0.098 | G -0.021 ± 0.076 | Y -0.067 ± 0.093 | A 0.014 ± 0.072 | V -0.066 ± 0.07 | S -0.027 ± 0.07
